Biological target: full-length H2A-H2B (S. cerevisiae, UniProt P04911 1-132; P02293 1-131)
Assay: ITC

B1: Pob3-C (domain or fragment)
chain: EVQERLQTALGSDSDEEDINMGSAGEDDESVDEDFQVSSDNDADEVAEEFDSDAALSDAEGGSDEERPSKKPKVE
For B1, the Kd was 300 nM and the “stoichiometry N” value was 1.
